Consider one molecule from patent US20170298146A1 (MODIQUEST B V, published 2017).

Non-standard residues stand in square brackets, D forms with d. No end group written: not given here. Cit = NC(=O)NCCC[C@H](N)C(=O)O

The target in experiment [1] is T1, huPAD4 deiminated human recombinant histone H2A (human).
T1 construct: also called H2A/p4; huPAD4 deiminated histone 2A
Put plainly: ELISA, 0.4 ug/well. The protocol:
(§1) CFC-1 and CFC-0 were coated at the same concentration and served as positive and negative controls, respectively, for specific anti-citrulline reactivity and as coating controls. Non-coated wells were used to test for aspecific binding of the antibodies. […] Detection of bound anti-citrulline antibodies was performed by incubating the wells with rabbit-anti-human-HRP (1:2000) for one hour at RT followed by incubation with TMB substrate. The resulting OD (y-axis) is a measure for antibody binding. H1=recombinant histone 1; H1/p2=huPAD2 recombinant histone 1; H1/p4=huPAD4 recombinant histone 1 and so forth (x-axis).

Experiment [2] concerns the target T2, huPAD2 deiminated human recombinant histone H2A (human).
T2 construct: also called H2A/p2
Put plainly: ELISA, 0.4 ug/well. The protocol:
as §1
(In general: In an ELISA, binding on a coated surface is turned into a signal by an enzyme label.)

Experiment [3] concerns the target T3, huPAD2 deiminated human recombinant histone H2B (human).
T3 construct: also called H2B/p2
As to the kind of experiment: ELISA, 0.4 ug/well. How it is done:
as §1

The target of experiment [4] is T4, huPAD2 deiminated human recombinant histone H3 (human).
T4 construct: also called H3/p2
Put plainly: ELISA, 0.4 ug/well. The protocol: as §1

Experiment [5] has as its target human recombinant histone H4 (human, UniProt P62805 2-103). Put plainly: ELISA, 0.4 ug/well. The protocol:
as §1

Experiment [6] has as its target T5, huPAD4 deiminated human recombinant histone H3 (human).
T5 construct: also called H3/p4
As to the kind of experiment: ELISA, 0.4 ug/well. How it is done:
as §1

For experiment [7], the target named is T6, CFC-1.
T6 construct: Positive control for anti-citrulline reactivity; also called cfc1 XG
Put plainly: ELISA, 0.4 ug/well. The protocol: as §1

The target of experiment [8] is T7, human recombinant histone H2A (human).
T7 construct: Non-deiminated
As to the kind of experiment: ELISA, 0.4 ug/well. How it is done:
as §1

The target of experiment [9] is T8, huPAD4 deiminated human recombinant histone H2B (human).
T8 construct: also called H2B/p4
Put plainly: ELISA, 0.4 ug/well. How it is done: as §1

Experiment [10] deals with T9, Histone 2A citrulline-containing peptide 2 (human, also: biotin label).
T9 peptide: AKAKS[Cit]SSRAGL
Put plainly: peptide ELISA, 0.4 ug/well. How it is done:
as §1, with “Biotin and citrulline-containing peptides derived from histone 2A were immobilized on NEUTRAVIDIN®-coated 96-well ELISA plates (0.3 μg/well). CFC-1” for “CFC-1”, “controls respectively” for “controls, respectively,”, “binding.” for “binding. H1=recombinant histone 1; H1/p2=huPAD2 recombinant histone 1; H1/p4=huPAD4 recombinant histone 1 and so forth (x-axis).”
(§2) Ninety-six-well ELISA plates were coated with NEUTRAVIDIN® (0.1 μg/well) by overnight incubation at 4° C. Wells were washed five times with PBS-TWEEN®-20 (PBS-T) and blocked by a one-hour incubation with PBS-T+1% Bovine serum albumin (BSA) at room temperature (RT). After five more washes with PBS-T, wells were incubated for one hour at RT with histone-derived citrulline and biotin-containing peptides (0.3 μg/well). […] Wells were washed five times with PBS-T and incubated with rabbit-anti-human-HRP (1:2000) for one hour at RT followed by five washes with PBS-T and three wash steps with PBS. Wells were incubated for five minutes with TMB substrate before stopping the reaction with 2 M H₂SO₄. Optical density was measured by 450 nm and is a measure for the affinity of the antibodies used.

For experiment [11], the target named is T10, Histone 2A citrulline-containing peptide 9 (human, also: biotin label).
T10 peptide: DNKKT[Cit]IIPRHL
As to the kind of experiment: peptide ELISA, 0.4 ug/well. How it is done:
as §1, with “Biotin and citrulline-containing peptides derived from histone 2A were immobilized on NEUTRAVIDIN®-coated 96-well ELISA plates (0.3 μg/well). CFC-1” for “CFC-1”, “controls respectively” for “controls, respectively,”, “binding.” for “binding. H1=recombinant histone 1; H1/p2=huPAD2 recombinant histone 1; H1/p4=huPAD4 recombinant histone 1 and so forth (x-axis).”
as §2

Experiment [12] addresses T11, Histone 2A citrulline-containing peptide 6 (human, also: biotin label).
T11 peptide: VHRLL[Cit]KGNYSE
As to the kind of experiment: peptide ELISA, 0.4 ug/well. How it is done: as §1, with “Biotin and citrulline-containing peptides derived from histone 2A were immobilized on NEUTRAVIDIN®-coated 96-well ELISA plates (0.3 μg/well). CFC-1” for “CFC-1”, “controls respectively” for “controls, respectively,”, “binding.” for “binding. H1=recombinant histone 1; H1/p2=huPAD2 recombinant histone 1; H1/p4=huPAD4 recombinant histone 1 and so forth (x-axis).”
as §2

The target of the next experiment is T12, msFibα XG (mouse, X at position 8 is citrulline; biotin label).
T12 peptide: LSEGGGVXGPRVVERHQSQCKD
As to the kind of experiment: peptide ELISA, 0.4 ug/well. How it is done:
(§3) Biotin and citrulline-containing peptides derived from fibrinogen and vimentin were immobilized on NEUTRAVIDIN®-coated 96-well ELISA plates (0.3 μg/well). CFC-1 and CFC-0 were coated at the same concentration and served as positive and negative controls respectively for specific anti-citrulline reactivity and as coating controls. Non-coated wells were used to test for aspecific binding of the antibodies. […] Detection of bound anti-citrulline antibodies was performed by incubating the wells with rabbit-anti-human-HRP (1:2000) for one hour at RT followed by incubation with TMB substrate. The resulting OD (y-axis) is a measure for antibody binding.
(§4) Biotin-labeled and citrulline-containing fibrinogen and vimentin peptides (Table 5) were also tested for reactivity with the therapeutic antibodies. Peptides were coated on 96-well NEUTRAVIDIN®-ELISA plates.

The target in a further experiment is T13, huFibα XH (human, X at position 15 is citrulline; biotin label).
T13 peptide: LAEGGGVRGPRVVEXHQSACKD
Put plainly: peptide ELISA, 0.4 ug/well. How it is done: as §3, §4

The target of the next experiment is T14, huFibα XG (human, X at position 8 is citrulline; biotin label).
T14 peptide: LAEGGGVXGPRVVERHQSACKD
Put plainly: peptide ELISA, 0.4 ug/well. How it is done:
as §3, §4

Experiment [13] has as its target T6, CFC-1. As to the kind of experiment: peptide ELISA, 0.4 ug/well. How it is done: as §3, §4
In a further experiment the target is T15, msVim XS/XL (mouse, also: biotin label).
T15 construct: also called mouse vimentin peptide
T15 peptide: YVT[Cit]SSAV[Cit]L[Cit]SSVP
As to the kind of experiment: peptide ELISA, 0.4 ug/well. How it is done:
as §3, §4

The target in another experiment is T16, msFibα XH (mouse, X at position 15 is citrulline; biotin label).
T16 peptide: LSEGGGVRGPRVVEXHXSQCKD
Put plainly: peptide ELISA, 0.4 ug/well. How it is done: as §3, §4

A further experiment has as its target T17, msFibβ XG (mouse, also: biotin label).
T17 peptide: EPTDSLDA[Cit]GHRPVDRR
Put plainly: peptide ELISA, 0.4 ug/well. The protocol: as §3, §4

The target in experiment [14] is T3, huPAD2 deiminated human recombinant …. As to the kind of experiment: ELISA, 0.000128 ug/well. How it is done:
as §1

For experiment [15], the target named is T4, huPAD2 deiminated human recombinant …. As to the kind of experiment: ELISA, 0.000128 ug/well. The protocol:
as §1

For experiment [16], the target named is T5, huPAD4 deiminated human recombinant …. As to the kind of experiment: ELISA, 0.000128 ug/well. The protocol:
as §1

For experiment [17], the target named is T8, huPAD4 deiminated human recombinant …. Put plainly: ELISA, 0.000128 ug/well. How it is done: as §1
Experiment [18] deals with T18, human recombinant histone H2B (human).
T18 construct: Non-deiminated
As to the kind of experiment: ELISA, 0.000128 ug/well. The protocol: as §1

B1: RhmAb2.102 (antibody, human IgG1, lambda)
heavy: not shown
light: QSVLTQPPSMSAAPGQKVTISCSGSSSNIGNNYVSWYQQVPGTAPKLLIYDDNKRPSGIPGRFSGSKSATSATLGITGLQAGDEADYYCGSWDDNLSVVLFGGGTKLTVLGQPKAAPSVTLFPPSSEELQANKATLVCLISDFYPGAVTVAWKADSSPVKAGVETTTPSKQSNNKYAASSYLSLTPEQWKSHRSYSCQVTHEGSTVEKTVAPTECS
notes: Human IgG1 lambda; also called Rhm2.102
As for B1, the OD in experiment [1] turned out to be 2.72 OD; in experiment [2], 3.08 OD; in experiment [3], 0.06 OD; in experiment [4] it was 1.18 OD; in experiment [5], 0.091 OD; in experiment [6], 0.166 OD. Besides, the OD with CFC-1 [7] turned out to be 3.12 OD; in experiment [8] it was 0.071 OD; in experiment [9] it was 0.054 OD; in [10], 0.136 OD; in experiment [11] it was 0.057 OD; in [12], 0.333 OD. For the same molecule, the OD with msFibα XG is 0.773 OD; with huFibα XH, 0.09 OD; with huFibα XG, 0.521 OD; with CFC-1 [13], 3.79 OD; with msVim XS/XL it was 1.45 OD; with msFibα XH, 0.076 OD. In addition, the OD in the experiment with msFibβ XG amounted to 1.67 OD; in experiment [14] it was 0.051 OD; in experiment [15], 0.066 OD; in experiment [16], 0.06 OD; in experiment [17], 0.053 OD; in experiment [18], 0.052 OD.
